This is an account of results in the supplement of paper PMC10567573.

To fix the notation:
B1: TRIM55 (parent)
chain: YLPTRGGTTMASGGRFRCPSCRHE
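Also: lentivirally expressed fusions sorted by FACS into six bins by GFP to DsRed ratio, PSI derived from sequencing read proportions per bin multiplied by bin number.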

Variants of B1 are the subject of the data set. Kind of data set: protein stability index of a GFP-peptide fusion (GPS, HEK-293T) (PSI 1-6); higher = more stable. Particulars: c terminus: a fixed tail appended.
On to YLPTAGGTTMASGGRFRCPSCRHE [R5A], for which the protein stability index was 1.87.

For YLPTHGGTTMASGGRFRCPSCRHE [R5H], the protein stability index turned out to be 1.32.

With YLPTNGGTTMASGGRFRCPSCRHE [R5N], the protein stability index worked out at 1.44.

Take YLPTEGGTTMASGGRFRCPSCRHE [R5E]: the protein stability index worked out at 2.4.

With YLPTQGGTTMASGGRFRCPSCRHE [R5Q], the protein stability index was 2.28.

Consider YLPTVGGTTMASGGRFRCPSCRHE [R5V], for which the protein stability index is 1.51.

On to YLPTIGGTTMASGGRFRCPSCRHE [R5I], for which the protein stability index stood at 1.98.

Consider YLPTDGGTTMASGGRFRCPSCRHE [R5D], for which the protein stability index is 1.73.

As for YLPTGGGTTMASGGRFRCPSCRHE [R5G], the protein stability index was found to be 2.

For YLPTWGGTTMASGGRFRCPSCRHE [R5W], the protein stability index was 3.96.

For YLPTRGGTTMAIGGRFRCPSCRHE [S12I], the protein stability index was 2.18.

For YLPTRGGTTMAVGGRFRCPSCRHE [S12V], the protein stability index was 2.42.

Regarding YLPTRGGTTMAGGGRFRCPSCRHE [S12G], the protein stability index stood at 2.1.

YLPTRGGTTMAEGGRFRCPSCRHE [S12E]: the protein stability index came out at 2.09.

Regarding YLPTRGGTTMACGGRFRCPSCRHE [S12C], the protein stability index amounted to 1.41.

Consider YLPTRGGTTMATGGRFRCPSCRHE [S12T], for which the protein stability index is 1.49.

As to YLPTRGGTTMAYGGRFRCPSCRHE [S12Y], the protein stability index was determined as 1.28.

YLPTRGGTTMAPGGRFRCPSCRHE [S12P]: the protein stability index amounted to 2.32.

Take YLPTRGGTTMADGGRFRCPSCRHE [S12D]: the protein stability index was found to be 1.34.

In the case of YLPTRGGTTMAHGGRFRCPSCRHE [S12H], the protein stability index is 2.29.

Take YLPTRGGTTMAMGGRFRCPSCRHE [S12M]: the protein stability index is 1.76.

For YLPTRGGTTMAAGGRFRCPSCRHE [S12A], the protein stability index was determined as 1.87.

Consider YLPTRGGTTEASGGRFRCPSCRHE [M10E], for which the protein stability index is 1.97.

With YLPTRGGTTKASGGRFRCPSCRHE [M10K], the protein stability index came to 1.11.

On to YLPTRGGTTQASGGRFRCPSCRHE [M10Q], for which the protein stability index turned out to be 2.03.

Take YLPTRGGTTPASGGRFRCPSCRHE [M10P]: the protein stability index came to 2.5.

Regarding YLPTRGGTTYASGGRFRCPSCRHE [M10Y], the protein stability index is 1.89.

With YLPTRGGTTAASGGRFRCPSCRHE [M10A], the protein stability index worked out at 2.85.

On to YLPTRGGTTNASGGRFRCPSCRHE [M10N], for which the protein stability index came to 1.96.

For the variant YLPTRGGTTWASGGRFRCPSCRHE [M10W], the protein stability index is 2.58.

Consider YLPTRGGTTVASGGRFRCPSCRHE [M10V], for which the protein stability index is 1.65.

As to YLPTRGGTTCASGGRFRCPSCRHE [M10C], the protein stability index stood at 2.91.

As to YLPTRGGTTTASGGRFRCPSCRHE [M10T], the protein stability index is 4.08.

Take YLPTRGGTTIASGGRFRCPSCRHE [M10I]: the protein stability index came out at 2.27.

In the case of YLPTRGGTTGASGGRFRCPSCRHE [M10G], the protein stability index was 2.61.

With YHPTRGGTTMASGGRFRCPSCRHE [L2H], the protein stability index is 2.78.

With YKPTRGGTTMASGGRFRCPSCRHE [L2K], the protein stability index turned out to be 1.32.

Regarding YPPTRGGTTMASGGRFRCPSCRHE [L2P], the protein stability index amounted to 1.71.

For YMPTRGGTTMASGGRFRCPSCRHE [L2M], the protein stability index was 1.93.

Regarding YRPTRGGTTMASGGRFRCPSCRHE [L2R], the protein stability index turned out to be 1.77.

For the variant YWPTRGGTTMASGGRFRCPSCRHE [L2W], the protein stability index turned out to be 2.7.

On to YEPTRGGTTMASGGRFRCPSCRHE [L2E], for which the protein stability index was 2.98.

In the case of YFPTRGGTTMASGGRFRCPSCRHE [L2F], the protein stability index was determined as 2.46.

Consider YTPTRGGTTMASGGRFRCPSCRHE [L2T], for which the protein stability index is 1.38.

In the case of YIPTRGGTTMASGGRFRCPSCRHE [L2I], the protein stability index turned out to be 2.22.

Consider YQPTRGGTTMASGGRFRCPSCRHE [L2Q], for which the protein stability index worked out at 1.02.

Consider YLPTRGGTTMASFGRFRCPSCRHE [G13F], for which the protein stability index worked out at 2.39.

As to YLPTRGGTTMASEGRFRCPSCRHE [G13E], the protein stability index came out at 2.25.

YLPTRGGTTMASIGRFRCPSCRHE [G13I]: the protein stability index stood at 1.33.

Regarding YLPTRGGTTMASHGRFRCPSCRHE [G13H], the protein stability index is 2.62.

YLPTRGGTTMASAGRFRCPSCRHE [G13A]: the protein stability index turned out to be 2.47.

As to YLPTRGGTTMASMGRFRCPSCRHE [G13M], the protein stability index was found to be 1.96.

On to YLPTRGGTTMASKGRFRCPSCRHE [G13K], for which the protein stability index was 1.38.

Regarding YLPTRGGTTMASPGRFRCPSCRHE [G13P], the protein stability index stood at 1.44.

Take YLPTRGGTTMASNGRFRCPSCRHE [G13N]: the protein stability index turned out to be 1.89.

Consider YLPTRGGTTMASDGRFRCPSCRHE [G13D], for which the protein stability index was 2.37.

Turning to YLPTRGGTRMASGGRFRCPSCRHE [T9R], the protein stability index came out at 1.82.

As to YLPTRGGTPMASGGRFRCPSCRHE [T9P], the protein stability index was determined as 2.49.

Turning to YLPTRGGTAMASGGRFRCPSCRHE [T9A], the protein stability index is 2.77.

As for YLPTRGGTGMASGGRFRCPSCRHE [T9G], the protein stability index was determined as 1.26.

Consider YLPTRGGTFMASGGRFRCPSCRHE [T9F], for which the protein stability index turned out to be 2.12.

With YLPTRGGTEMASGGRFRCPSCRHE [T9E], the protein stability index was 2.66.

As for YLPTRGGTMMASGGRFRCPSCRHE [T9M], the protein stability index came to 1.36.

As for YLPTRGGTNMASGGRFRCPSCRHE [T9N], the protein stability index amounted to 2.01.

Consider YLPTRGGTQMASGGRFRCPSCRHE [T9Q], for which the protein stability index turned out to be 1.11.

On to ILPTRGGTTMASGGRFRCPSCRHE [Y1I], for which the protein stability index turned out to be 2.52.

On to LLPTRGGTTMASGGRFRCPSCRHE [Y1L], for which the protein stability index stood at 2.06.

As for FLPTRGGTTMASGGRFRCPSCRHE [Y1F], the protein stability index was 2.51.

As to QLPTRGGTTMASGGRFRCPSCRHE [Y1Q], the protein stability index was 2.45.

As to SLPTRGGTTMASGGRFRCPSCRHE [Y1S], the protein stability index was 3.15.

As for WLPTRGGTTMASGGRFRCPSCRHE [Y1W], the protein stability index is 2.99.

Turning to MLPTRGGTTMASGGRFRCPSCRHE [Y1M], the protein stability index came to 1.67.

As for VLPTRGGTTMASGGRFRCPSCRHE [Y1V], the protein stability index came to 1.89.

Consider NLPTRGGTTMASGGRFRCPSCRHE [Y1N], for which the protein stability index was found to be 3.07.

Regarding GLPTRGGTTMASGGRFRCPSCRHE [Y1G], the protein stability index amounted to 3.18.

In the case of CLPTRGGTTMASGGRFRCPSCRHE [Y1C], the protein stability index is 2.14.

In the case of HLPTRGGTTMASGGRFRCPSCRHE [Y1H], the protein stability index came out at 2.79.

For DLPTRGGTTMASGGRFRCPSCRHE [Y1D], the protein stability index stood at 2.15.

On to ALPTRGGTTMASGGRFRCPSCRHE [Y1A], for which the protein stability index turned out to be 2.59.

Consider KLPTRGGTTMASGGRFRCPSCRHE [Y1K], for which the protein stability index was determined as 1.46.

For the variant YLNTRGGTTMASGGRFRCPSCRHE [P3N], the protein stability index was determined as 2.29.

Turning to YLVTRGGTTMASGGRFRCPSCRHE [P3V], the protein stability index was determined as 1.97.

For YLETRGGTTMASGGRFRCPSCRHE [P3E], the protein stability index was found to be 1.

Consider YLRTRGGTTMASGGRFRCPSCRHE [P3R], for which the protein stability index is 3.49.

Consider YLLTRGGTTMASGGRFRCPSCRHE [P3L], for which the protein stability index turned out to be 1.32.

With YLITRGGTTMASGGRFRCPSCRHE [P3I], the protein stability index amounted to 1.

Turning to YLDTRGGTTMASGGRFRCPSCRHE [P3D], the protein stability index came out at 1.04.

For YLPTRGGDTMASGGRFRCPSCRHE [T8D], the protein stability index was 1.36.

Consider YLPTRGGKTMASGGRFRCPSCRHE [T8K], for which the protein stability index stood at 2.1.

Turning to YLPTRGGCTMASGGRFRCPSCRHE [T8C], the protein stability index amounted to 3.19.

As for YLPTRGGYTMASGGRFRCPSCRHE [T8Y], the protein stability index was determined as 4.26.

For YLPTRGGHTMASGGRFRCPSCRHE [T8H], the protein stability index came out at 2.88.

For YLPTRGGVTMASGGRFRCPSCRHE [T8V], the protein stability index was found to be 2.03.

With YLPTRGGLTMASGGRFRCPSCRHE [T8L], the protein stability index was determined as 4.11.
